The target of the assay is T1, MOR202 (anti-CD38 antibody).
T1 construct: also called MOR03087
Description: serum immunofixation electrophoresis (IFE) after pre-incubation of MOR202 (1200 µg/mL, saline or serum) with MOR09292-hAlb; anti-IgG or anti-lambda staining. Here is the method:
MOR202 at a constant concentration of 1200 μg/mL in saline (Lane 2-3) or serum (Lane 4-13) was pre-incubated with or without its idiotypic antibody MOR09292-hAlb at different ratios and the prepared samples were analyzed via IFE using anti-IgG staining (Lane 2-8) or anti-lambda staining (Lane 9-13). (Lane 2=MOR202; Lane 3=MOR202+MOR09292-hAlb at 2400 μg/mL; Lane 4=MOR202; Lane 5=MOR202+MOR09292-hAlb at 1200 μg/mL; Lane 6=MOR202+MOR09292-hAlb at 1800 μg/mL; Lane 7=MOR202+MOR09292-hAlb at 2400 μg/mL; Lane 8=MOR202+MOR09292-hAlb at 3600 μg/mL; Lane 9=MOR202; Lane 10=MOR202+MOR09292-hAlb at 1200 μg/mL; Lane 11=MOR202+MOR09292-hAlb at 1800 μg/mL; Lane 12=MOR202+MOR09292-hAlb at 2400 μg/mL; Lane 13=MOR202+MOR09292-hAlb at 3600 μg/mL; Lane 1=human serum from a healthy donor stained for total protein to evaluate general background signaling).
In order to differentiate between MOR202 related assay signals in IFE vs. endogenous M-protein spikes a method was tested pre-incubating a MOR202 containing sample with an MOR202 specific anti-idiotypic antibody (MOR09292). […] For evaluating if the migration distance is large enough to be detected samples containing MOR202 in saline were prepared and pre-incubated with or without MOR09292. […] Afterwards, the samples were analyzed and IFE gels were stained with anti-IgG or anti-lambda antisera. […]

T1 sequence (VH, as listed by the source, chain 1 of 2): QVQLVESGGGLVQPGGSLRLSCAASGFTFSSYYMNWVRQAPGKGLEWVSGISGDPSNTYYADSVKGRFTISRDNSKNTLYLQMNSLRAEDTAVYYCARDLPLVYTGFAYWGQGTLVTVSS
T1 sequence (VL, as listed by the source, chain 2 of 2): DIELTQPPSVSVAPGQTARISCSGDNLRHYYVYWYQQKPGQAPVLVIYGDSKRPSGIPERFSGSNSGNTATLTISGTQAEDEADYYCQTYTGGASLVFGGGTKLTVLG

B1: MOR09292-human albumin fusion (MOR09292-Fab fragment genetically fused to human albumin) (Fab)
heavy: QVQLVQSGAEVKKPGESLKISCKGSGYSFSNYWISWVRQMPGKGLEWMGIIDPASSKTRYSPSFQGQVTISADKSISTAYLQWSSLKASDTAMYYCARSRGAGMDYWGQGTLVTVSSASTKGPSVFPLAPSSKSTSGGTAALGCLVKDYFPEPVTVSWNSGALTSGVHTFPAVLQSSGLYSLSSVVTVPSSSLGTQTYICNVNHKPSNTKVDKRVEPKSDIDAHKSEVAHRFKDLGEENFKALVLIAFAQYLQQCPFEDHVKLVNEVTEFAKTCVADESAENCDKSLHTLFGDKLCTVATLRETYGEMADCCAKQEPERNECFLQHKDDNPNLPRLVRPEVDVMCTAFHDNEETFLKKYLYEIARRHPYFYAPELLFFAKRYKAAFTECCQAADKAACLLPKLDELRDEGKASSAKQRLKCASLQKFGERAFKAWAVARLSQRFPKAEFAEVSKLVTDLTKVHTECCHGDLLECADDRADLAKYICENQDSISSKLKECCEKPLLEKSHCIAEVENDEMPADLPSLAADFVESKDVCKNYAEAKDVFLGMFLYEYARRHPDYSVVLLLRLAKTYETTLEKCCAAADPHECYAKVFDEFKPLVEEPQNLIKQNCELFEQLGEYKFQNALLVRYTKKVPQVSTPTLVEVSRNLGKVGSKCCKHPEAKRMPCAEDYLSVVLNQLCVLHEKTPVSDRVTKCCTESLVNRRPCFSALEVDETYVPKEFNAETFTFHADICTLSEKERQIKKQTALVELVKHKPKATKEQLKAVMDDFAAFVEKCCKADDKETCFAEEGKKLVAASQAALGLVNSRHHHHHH
light: DIVLTQPPSVSGAPGQRVTISCTGSSSNIGAGYDVHWYQQLPGTAPKLLIYADNNRPSGVPDRFSGSKSGTSASLAITGLQSEDEADYYCGSYDESSNSMVFGGGTKLTVLGQPKAAPSVTLFPPSSEELQANKATLVCLISDFYPGAVTVAWKADSSPVKAGVETTTPSKQSNNKYAASSYLSLTPEQWKSHRSYSCQVTHEGSTVEKTVAPTECS
notes: Anti-idiotypic Fab to MOR202, fused to human albumin; also called MOR09292-hAlb; MOR09292-huAlb
As for B1, the binding result is “binds”.

(Values after patent US20190077875A1 (MorphoSys, published 2019).)
